Holding throughout (assay): two-hybrid; split-ubiquitin yeast two-hybrid (DUALhunter), S. cerevisiae NMY51; bait as Cub fusion, prey as NubG fusion; growth on SD-LWHA with 45 and 55 mM 3-AT, 28°C, and β-galactosidase activity (X-gal, ONPG)
In assay [1] the target is SV40 LargeT antigen (Cub) (SV40).
The target of assay [2] is Opuntia streptacantha SK3 dehydrin OpsDHN1, full-length version, split-ubiquitin fusion (Opuntia streptacantha).
Assay [3] addresses OpsDHN1-SK2, C-terminal truncated version (residues 1-199), split-ubiquitin fusion (Opuntia streptacantha).
Assay [4] deals with OpsDHN1-S(ΔH)K3, version without the histidine-rich motif (residues 1-111/138-248), split-ubiquitin fusion (Opuntia streptacantha).

In assay [1], “tumor suppressor Δp53 (NubG) (domain or fragment)” had a β-galactosidase activity (two-hybrid reporter) (nmol ONP/min/mg protein) of 656.

For the substance “Opuntia streptacantha SK3 dehydrin OpsDHN1, full-length version, split-ubiquitin fusion (natural protein)”, the β-galactosidase activity (two-hybrid reporter) (nmol ONP/min/mg protein) in assay [2] is 462; in assay [3], 142; in assay [4] it was 70.5.

For “OpsDHN1-SK2, C-terminal truncated version (residues 1-199), split-ubiquitin fusion (domain or fragment)”, the β-galactosidase activity (two-hybrid reporter) (nmol ONP/min/mg protein) in assay [2] turned out to be 146.
